In article PMC2913408 (Biochemistry, 2010):

Tests used:
purified protein [1] = substrate: O=C(O)/C(O)=C/c1ccccc1; assay: purified protein; conditions: 10 mM potassium phosphate, pH 7.3, 24 °C
purified protein [2] = substrate: O=C(O)/C=C/C=C(\O)C(=O)O; assay: purified protein; format: biochemical, Chloroflexus aurantiacus; conditions: 10 mM potassium phosphate, pH 7.3, 24 °C

B1: hh4-OT (heterohexamer 4-oxalocrotonate tautomerase) (Chloroflexus aurantiacus J-10-fl) (protein)
chain 1: MLLLRITMLEGRSTEQKAELARALSAAAAAAFDVPLAEVRLIIQEVPPTHWTVGGISMAELRQQASTSTQGQ
chain 2: PMLEVFYSGDRPPDRTRKQAFAAEASAIFQRVIGTPPGRLQLIIQIVSPENTLAVIDLDRPDSDTTAEPDQQ
- Km (purified protein [1]): 121 ± 20 µM
- kcat (purified protein [1]): 13 s⁻¹
- kcat/Km (purified protein [1]): 110000 M⁻¹ s⁻¹
- Km (purified protein [2]): 70 ± 8 µM
- kcat (purified protein [2]): 3000 ± 100 s⁻¹
- kcat/Km (purified protein [2]): 4.3e+07 M⁻¹ s⁻¹
